± gives the standard deviation of the averaged measurements.

For this data set, the system named is VchCAST RNA-guided transposition machinery (E. coli BL21(DE3) host, lacZ target). Briefly: relative integration efficiency (T-RL orientation) vs wild-type transposon end (log2 (normalized fold change)); transposon end mutated: right end (5 bp flank + 75 bp right end); higher = more efficient transposition. The method in brief:
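A T7-driven effector plasmid encoding a CRISPR array, tniQ-cas8-cas7-cas6 and tnsA-tnsB-tnsC was co-transformed into E. coli BL21(DE3) together with a pUC57 mini-transposon donor holding barcoded pools of 1549 left-end or 1849 right-end variants. Transformants were plated with 0.1 mM IPTG at 37°C for 18 h. Illumina sequencing of PCR-amplified input plasmids and genomic integration junctions gave barcode abundances, and relative integration efficiency is their output/input fold change, normalised to reference barcodes and log-transformed.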
For the sequence “ACATTTGTTGATACAACCATAAAATGATAATTACACCCATAAATTGATAATTATCACACCCATAAATTGATATTGCCTCTCAGACCACATAGCTGCCATGTCCTGATCGGACGGACCGCACCGACAC”, the “relative integration efficiency (log2)” value came out at 0.787 ± 0.22.
For “ACATTGGTGGATACAACCATAAAATGATAATTACACCCATAAATTCATCATTATCACACCCAATTTAACTATAACGCTCTGATCATAGTCAGACCAACATTGCTACGACCCGTATTCGCACCGACAC”, the “relative integration efficiency (log2)” value was -7.11 ± 0.38.
The same measure for “ACATTTGTGGATACAACCATAAAATGATAATTACACCCATAAATTCATAATTATCACACCCAATTTAACTATAACGCTCTGATCATAGTCAGACCAACATTGCTACGACCCGTATTCGCACCGACAC”: -1.9 ± 0.49; for “ACATTAGTCGATACAACCATAAAATGATAATTACACCCATAAATGGATAATTATCACACCCAATTTAACTATAACGCTCTGATCATAGTCAGACCAACATTGCTACGACCCGTATTCGCACCGACAC”: -6.76 ± 0.26.
For the sequence “ACATTTGTTGATACAACCATAAAAGGATAATTACCCCCATAAATTGATAATTATCCCACCCCATTTAACTATAACGCTCTGATCATAGTCAGACCAACATTGCTACGACCCGTATTCGCACCGACAC”, the “relative integration efficiency (log2)” value is -1.2 ± 0.22.
On to “ACATTTGTTGATACAACCATAAAAGGATCATTACACCCATAAATTGATAATTATCACACCCAATTTAACTATAACGCTCTGATCATAGTCAGACCAACATTGCTACGACCCGTATTCGCACCGACAC”, for which the “relative integration efficiency (log2)” value was -2.03 ± 0.18.
Then “ACATTTGTTGATACAACCATAAAATGATAATTACACGGTAAAATTGATAATTATCACACCCATAAATTGATATTGCCTCTGATCATAGTCAGACCAACATTGCTACGACCCGTATTCGCACCGACAC”, with -1.85 ± 0.1; and “ACATTTGTTGATACAACCAGCCCCTGATAATTACACCCAGCCCGTGATAATTATCACACCCAGCCCGTGATATTGCCTCTGATCATAGTCAGACCAACATTGCTACGACCCGTATTCGCACCGACAC”, with -6.71 ± 0.47; and “ACATTTGTTGATACAACCATAAAAGGATCATTACACCCATCAATTGATAATTATCCCACCCAATTTAACTATAACGCTCTGATCATAGTCAGACCAACATTGCTACGACCCGTATTCGCACCGACAC”, with -2.99 ± 0.16.
The same measure for “ACATTTGTCGATCCAACCATAAAATGATAATTACACCCATAAATTCATCATTATCACACCCAATTTAACTATAACGCTCTGATCATAGTCAGACCAACATTGCTACGACCCGTATTCGCACCGACAC”: -2.47 ± 0.39; for “ACATTTGTTGATACAACCATAAAATGATCATTACACCCATAAATTGATAATTATCACACCCCATTTAACTATAACGCTCTGATCATAGTCAGACCAACATTGCTACGACCCGTATTCGCACCGACAC”: -2.04 ± 0.29; for “ACATTTGTTGATACAACCATAAGTTGATATTTTCAACCATAAGTTGATATTTTTCAGTGGGTATTTAACTATAACGCTCTGATCATAGTCAGACCAACATTGCTACGACCCGTATTCGCACCGACAC”: -0.302 ± 0.092.
Then “ACATTTGAAGATACAACCATAAAATGATAATTACACCCATAAATTGATAATTATCACACCCATAAATTGATATTGCCTCTGATCATAGTCAGACCAACATTGCTACGACCCGTATTCGCACCGACAC”, with -0.132 ± 0.019; and “ACATTTGTTGATACAACCATAAAATGAATTAATCACCCATAAATTGAATTAATTCACACCCATAAATTGAATAACGCTCTGATCATAGTCAGACCAACATTGCTACGACCCGTATTCGCACCGACAC”, with -2.34 ± 0.14; and “ACATTTGTTGATACAACCATAAGTTGATATTTTCAACCATAAGTTGATATTTTTCACAACCATAAAGTGATATTTACTCTGATCATAGTCAGACCAACATTGCTACGACCCGTATTCGCACCGACAC”, with 0.196 ± 0.011.
Regarding “ACATTTGTTGATACAACCATAAAATGATAATTACTCTGATCATAGTCACACCCATAAATTGATAATTATCACACCCATAAATTGATATTGCGACCAACATTGCTACGACCCGTATTCGCACCGACAC”, the “relative integration efficiency (log2)” value was -4.9525 ± 0.00028.
Consider “ACATTTGTTGATACAACCATAAAATGATAATTACACCCATAAATTGAGCCGGCGACACAAACGCCCGGTCGCGGTAAGAGGATCATAGTCAGACCAACATTGCTACGACCCGTATTCGCACCGACAC”, for which the “relative integration efficiency (log2)” value was -1.02 ± 0.23.
The same measure for “ACATTTGTTGATACAACCATAAAATGATAATTACACCCATAAATTGAATATTATCACACCCATAAATTGATATTGCCTCTGATCATAGTCAGACCAACATTGCTACGACCCGTATTCGCACCGACAC”: -1.1 ± 0.27; for “ACATTTGTTGATACAACCATAAAATGATAATTACACCCATAAATGGATCATTATCACACCCAATTTAACTATAACGCTCTGATCATAGTCAGACCAACATTGCTACGACCCGTATTCGCACCGACAC”: -1.63 ± 0.33; for “ACATTTGTTGATACAACCCTAAAATGATAATTACACCCATAAATGGATAATTATCACCCCCAATTTAACTATAACGCTCTGATCATAGTCAGACCAACATTGCTACGACCCGTATTCGCACCGACAC”: -3.24 ± 0.23.
On to “ACATTTGTTGATACAACCATAAAAGGATAATTACCCCCATCAATTGATAATTATCCCACCCAATTTAACTATAACGCTCTGATCATAGTCAGACCAACATTGCTACGACCCGTATTCGCACCGACAC”, for which the “relative integration efficiency (log2)” value is -0.787 ± 0.53.
For the sequence “ACATTTGTTGATACAAAAATAAAATGATAATTACACCCATAAATTGATAATTATCACACCCATAAATTGATATTGCCTCTGATCATAGTCAGACCAACATTGCTACGACCCGTATTCGCACCGACAC”, the “relative integration efficiency (log2)” value was -0.328 ± 0.18.
Consider “ACATTTGTTCATCCAACCATAAAATGATAATTACACCCATAAATTGATAATTATCACACCCAATTTAACTATAACGCTCTGATCATAGTCAGACCAACATTGCTACGACCCGTATTCGCACCGACAC”, for which the “relative integration efficiency (log2)” value was -1.42 ± 0.29.
In the case of “ACATTTGGTGATACAACCATATAATGATAATAACACCCATAAAATGATAATTATCACACCCAATTTAACTATAACGCTCTGATCATAGTCAGACCAACATTGCTACGACCCGTATTCGCACCGACAC”, the “relative integration efficiency (log2)” value is -6.35 ± 0.32.
Regarding “ACATTTGTGGATACAACCATAAAACGATAATTACACCCATAAATGGATCATTATCACACCCAATTTAACTATAACGCTCTGATCATAGTCAGACCAACATTGCTACGACCCGTATTCGCACCGACAC”, the “relative integration efficiency (log2)” value was -1.81 ± 0.3.
Turning to “ACATTTGTAAAAAAAACCATACGTTGATTTTACGAAACCATACGCTGAAATAAAAACAACCATACCTTGAAATTGCCTCTGATCATAGTCAGACCAACATTGCTACGACCCGTATTCGCACCGACAC”, the “relative integration efficiency (log2)” value was -6.84 ± 0.49.
As to “ACATTTGTTGATACAACCCTAAAATGATAATTACACCCATAAATTCATAATTATCACACCCAATTTAACTATAACGCTCTGATCATAGTCAGACCAACATTGCTACGACCCGTATTCGCACCGACAC”, the “relative integration efficiency (log2)” value is -4.59 ± 0.4.
With “ACATTTGTTGATACAACCATAAAGTGATATTTACACCCATAAATTGATATTGCTCACAACCATAAAATGATAATTACTCTGATCATAGTCAGACCAACATTGCTACGACCCGTATTCGCACCGACAC”, the “relative integration efficiency (log2)” value is -0.254 ± 0.19.
As to “ACATTTGTGGATACAACCATAAAATGATAATTACACCCATAAATTGATCATTATCACACCCAATTTAACTATAACGCTCTGATCATAGTCAGACCAACATTGCTACGACCCGTATTCGCACCGACAC”, the “relative integration efficiency (log2)” value is -1.46 ± 0.31.
As to “ACATTTGTTGATACAACCATAAAATGATAATTACACAAATAAATTGATAATTATCACACCCATAAATTGATATTGCCTCTGATCATAGTCAGACCAACATTGCTACGACCCGTATTCGCACCGACAC”, the “relative integration efficiency (log2)” value was -0.996 ± 0.19.
“ACATTGGTCGATACAACCATAAAATGATAATTACACCCATAAATTGATAATTATCACACCCAATTTAACTATAACGCTCTGATCATAGTCAGACCAACATTGCTACGACCCGTATTCGCACCGACAC”: the “relative integration efficiency (log2)” value was -7.79 ± 0.62.
Consider “ACATTTGTTGATACAACCATAAAGTGATATTTACAACCATAAGTTGATATTTTTCACAACCATAAAGTGATATTTACTCTGATCATAGTCAGACCAACATTGCTACGACCCGTATTCGCACCGACAC”, for which the “relative integration efficiency (log2)” value is 0.0395 ± 0.16.

For the origin of these results see the supplement of paper PMC10201428.
